Experimental data published in paper PMC11464976, “Insights into structure and activity of a UDP-GlcNAc 2-epimerase involved in secondary cell wall polymer biosynthesis in Paenibacillus alvei” (Frontiers in Molecular Biosciences, 2024).

What was measured:
Test in all cases: purified protein
Format in all cases: biochemical, Paenibacillus alvei
[1] = tested on: T1, CC(=O)N[C@H]1[C@@H](OP(=O)(O)OP(=O)(O)OC[C@H]2O[C@@H](n3ccc(=O)[nH]c3=O)[C@H](O)[C@@H]2O)O[C@H](CO)[C@@H](O)[C@@H]1O; settings: forward reaction, 10 mM sodium phosphate pH 8.0, 50 mM MgCl2, 30 °C, apparent constant
T1 construct: amino acids 1-384, Leu-Glu linker and C-terminal His6 tag, pET22b(+), E. coli BL21(DE3), Ni-NTA

[2] = substrate: CC(=O)N[C@@H]1[C@@H](OP(=O)(O)OP(=O)(O)OC[C@H]2O[C@@H](n3ccc(=O)[nH]c3=O)[C@H](O)[C@@H]2O)O[C@H](CO)[C@@H](O)[C@@H]1O; settings: reverse reaction, 10 mM sodium phosphate pH 8.0, 50 mM MgCl2, 30 °C, 45 min, apparent constant
[3] = substrate: CC(=O)N[C@H]1[C@@H](OP(=O)(O)OP(=O)(O)OC[C@H]2O[C@@H](n3ccc(=O)[nH]c3=O)[C@H](O)[C@@H]2O)O[C@H](CO)[C@@H](O)[C@@H]1O; settings: forward reaction, 10 mM sodium phosphate pH 8.0, 50 mM MgCl2, 30 °C, 5 min, apparent constant
[4] = kcat 0.05 in text fits printed kcat/Km 0.03, table prints 0.53

## PaMnaA (MnaA.His6) (Paenibacillus alvei; H241A)
[1]
  Km: 3.27 mM
  kcat: 0.53 s⁻¹
  kcat/Km: 160 M⁻¹ s⁻¹

## PaMnaA (MnaA.His6) (Paenibacillus alvei; Q42A)
[1]; [4]
  Km: 1.61 mM
  kcat: 0.05 s⁻¹
  kcat/Km: 30 M⁻¹ s⁻¹

## PaMnaA (MnaA.His6) (Paenibacillus alvei; Q69A)
[1]
  Km: 8.92 mM
  kcat: 37.9 s⁻¹
  kcat/Km: 4250 M⁻¹ s⁻¹

B1: PaMnaA (MnaA.His6) (Paenibacillus alvei) (protein)
chain: MSKVKVMTVFGVRPEAIKMAPLILELQKHPEHIESIVCVTAQHRQMLDQVLDVFNIKPDYDLDIMQARQTLNDISVRVLQGLEPVLQEAKPDIVLVHGDTLTTFLASYAAFMQQIKVGHVEAGLRTWNKLSPFPEEMNRQLTGVLADLHFAPTDWSASNLRKENKQDASIFVTGNTVTDVFQYTVRSDYKHEVLDWAQGKRLVLMTAHRRESQGEPHRNIFRAVRRIADEFEDIAIVYPVHPSPAVREPAHEMLGDHPRIKLIDPLDVVDLHNFYPHTHLILTDSGGLQEEAPSFGIPVLVLRETTERPEGIDAGTLELVGTDEEKVYARAKALLSDETTYARMSKAANPYGDGKASQRIVSAILHSFGVLEERPEPFHTKFTN
notes: amino acids 1-384, Leu-Glu linker and C-terminal His6 tag, pET22b(+), E. coli BL21(DE3), Ni-NTA
[2]
  Km: 2.41 mM
  kcat: 6.02 s⁻¹
[3]
  Km: 3.91 mM
  kcat: 33.4 s⁻¹
  kcat/Km: 8560 M⁻¹ s⁻¹
